Laboratory results: US20250179200A1 (UNIVERSITY OF CHICAGO, published 2025)
Changes are numbered by the printed parent chain.

T1: Growth Hormone Receptor (GHR) immobilized on a high binding plate (UniProt P10912 19-264, limits assumed)
T1 sequence (looked up): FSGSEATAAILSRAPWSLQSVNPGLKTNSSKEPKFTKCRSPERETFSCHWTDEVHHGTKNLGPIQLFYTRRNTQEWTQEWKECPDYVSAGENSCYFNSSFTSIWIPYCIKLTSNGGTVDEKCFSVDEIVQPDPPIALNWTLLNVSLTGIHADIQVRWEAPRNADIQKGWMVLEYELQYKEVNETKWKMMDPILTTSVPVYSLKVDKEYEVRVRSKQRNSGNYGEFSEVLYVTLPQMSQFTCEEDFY

T2: Human GHR-Fc-10x His (extracellular region of human growth hormone receptor fused to human Fc) (human, UniProt P10912 50-256)
T2 construct: Captured by its 10x His-tag on a Ni-NTA sensor chip for SPR; not shown: human Fc domain of vector pAB1200 with its linker; 10x His-tag replacing the AviTag
T2 sequence (looked up): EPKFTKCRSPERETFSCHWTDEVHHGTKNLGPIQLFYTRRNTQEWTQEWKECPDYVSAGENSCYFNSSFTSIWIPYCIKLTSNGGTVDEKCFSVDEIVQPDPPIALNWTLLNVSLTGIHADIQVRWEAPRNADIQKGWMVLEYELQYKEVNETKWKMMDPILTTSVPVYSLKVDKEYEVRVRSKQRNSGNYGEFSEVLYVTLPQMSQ

B1: GHR3 Fab (Fab, V domains shown)
VH: EVQLVESGGGLVQPGGSLRLSCAASGFNVSYYSIHWVRQAPGKGLEWVAYISPSYGSTSYADSVKGRFTISADTSKNTAYLQMNSLRAEDTAVYYCARGYWGGGYWPYHAFDYWGQGTLVTVSS
VL: DIQMTQSPSSLSASVGDRVTITCRASQSVSSAVAWYQQKPGKAPKLLIYSASSLYSGVPSRFSGSRSGTDFTLTISSLQPEDFATYYCQQYYTSLLTFGQGTKVEIKR
B2: GHR_TS10 Fab (Fab, V domains shown)
VH: EVQLVESGGGLVQPGGSLRLSCAASGFNFSSSYIHWVRQAPGKGLEWVAYISPSSGYTSYADSVKGRFTISADTSKNTAYLQMNSLRAEDTAVYYCARQYYGGWYGFGMDYWGQGTLVTVSS
VL: B1 VL with Y91W, Y92H, T93S, S94Y, L96I
B3: GHR_TS23 Fab (Fab, V domains shown)
VH: EVQLVESGGGLVQPGGSLRLSCAASGFNFYYSSIHWVRQAPGKGLEWVASIYSYSGSTSYADSVKGRFTISADTSKNTAYLQMNSLRAEDTAVYYCARQYWYYGGYFYYGIDYWGQGTLVTVSS
VL: B1 VL with Y92W, T93S, S94T, L96I
B4: GHR1 Fab (Fab, V domains shown)
VH: EVQLVESGGGLVQPGGSLRLSCAASGFNVSYSSIHWVRQAPGKGLEWVAYIYSSYGSTYYADSVKGRFTISADTSKNTAYLQMNSLRAEDTAVYYCAREYWPYYSQTGGSAMDYWGQGTLVTVSS
VL: B1 VL with Y91S, Y92M, T93H, S94P, L96I
notes: Synthetic human Fab from phage display, expressed in E. coli
B5: GHR2 Fab (Fab, V domains shown)
VH: EVQLVESGGGLVQPGGSLRLSCAASGFNLYYSSIHWVRQAPGKGLEWVAYISPSYGSTSYADSVKGRFTISADTSKNTAYLQMNSLRAEDTAVYYCARYYDYSWPWYWHGGGPAFDYWGQGTLVTVSS
VL: DIQMTQSPSSLSASVGDRVTITCRASQSVSSAVAWYQQKPGKAPKLLIYSASSLYSGVPSRFSGSRSGTDFTLTISSLQPEDFATYYCQQYEEYPLITFGQGTKVEIKR
notes: Fab
B6: GHR3 Fab (Fab, V domains shown)
VH: B1 VH
VL: B1 VL
notes: Fab
B7: GHR4 Fab (Fab, V domains shown)
VH: EVQLVESGGGLVQPGGSLRLSCAASGFNVYYSYIHWVRQAPGKGLEWVAYISPYSGSTSYADSVKGRFTISADTSKNTAYLQMNSLRAEDTAVYYCARQEWYAFDYWGQGTLVTVSS
VL: B1 VL with Y92W, T93S, S94Y, L96I
notes: Fab; also called FAB4
B8: GHR5 Fab (Fab, V domains shown)
VH: EVQLVESGGGLVQPGGSLRLSCAASGFNVSYYSIHWVRQAPGKGLEWVAYISPSSGSTSYADSVKGRFTISADTSKNTAYLQMNSLRAEDTAVYYCARMYWQGGYSSYWQSYAMDYWGQGTLVTVSS
VL: B5 VL with Y91K, E92S, E93Q, P95S, I97V
notes: Fab
B9: GHR6 Fab (Fab, V domains shown)
VH: EVQLVESGGGLVQPGGSLRLSCAASGFNVYYSSIHWVRQAPGKGLEWVASIYSSYGYTSYADSVKGRFTISADTSKNTAYLQMNSLRAEDTAVYYCARGQWSGLSGYWEYKALDYWGQGTLVTVSS
VL: B5 VL with Y91V, E92G, E93G, Y94S, P95S
notes: Fab
B10: GHR7 Fab (Fab, V domains shown)
VH: EVQLVESGGGLVQPGGSLRLSCAASGFNFSYSSIHWVRQAPGKGLEWVAYISSYYGYTSYADSVKGRFTISADTSKNTAYLQMNSLRAEDTAVYYCARLQHPSWYYYQGYHSGMDYWGQGTLVTVSS
VL: B1 VL with Y92W, T93S, L96I
notes: Fab
B11: GHR8 Fab (Fab, V domains shown)
VH: EVQLVESGGGLVQPGGSLRLSCAASGFNISYSSIHWVRQAPGKGLEWVASIYSSYGSTYYADSVKGRFTISADTSKNTAYLQMNSLRAEDTAVYYCARSYIYSQPGFYYDSYALDYWGQGTLVTVSS
VL: B1 VL with Y92G, T93S, S94W, L96I
notes: Fab
B12: GHR9 Fab (Fab, V domains shown)
VH: EVQLVESGGGLVQPGGSLRLSCAASGFNVSYSSIHWVRQAPGKGLEWVASISSSYGSTYYADSVKGRFTISADTSKNTAYLQMNSLRAEDTAVYYCARYYDYSWSTYKGIGTGAIDYWGQGTLVTVSS
VL: B5 VL with E92W, E93Y, Y94S, P95Y
notes: Fab
B13: GHR10 Fab (Fab, V domains shown)
VH: EVQLVESGGGLVQPGGSLRLSCAASGFNFSYYSIHWVRQAPGKGLEWVASISSYYGSTSYADSVKGRFTISADTSKNTAYLQMNSLRAEDTAVYYCARTEYSFGMYWAHTGMDYWGQGTLVTVSS
VL: B5 VL with Y91F, E92W, E93S, Y94S, P95E, L96P
notes: Fab
B14: GHR11 Fab (Fab, V domains shown)
VH: EVQLVESGGGLVQPGGSLRLSCAASGFNLSYYYIHWVRQAPGKGLEWVASIYSSSGYTYYADSVKGRFTISADTSKNTAYLQMNSLRAEDTAVYYCARQYPYSWSSYGFSSGALDYWGQGTLVTVSS
VL: DIQMTQSPSSLSASVGDRVTITCRASQSVSSAVAWYQQKPGKAPKLLIYSASSLYSGVPSRFSGSRSGTDFTLTISSLQPEDFATYYCQQYFAYYSPITFGQGTKVEIKR
notes: Fab
B15: GHR12 Fab (Fab, V domains shown)
VH: EVQLVESGGGLVQPGGSLRLSCAASGFNVSYYSIHWVRQAPGKGLEWVASIYSSYGSTYYADSVKGRFTISADTSKNTAYLQMNSLRAEDTAVYYCARGYWQGGYYRWGNGGLDYWGQGTLVTVSS
VL: B1 VL with Y91S, T93G, S94W, L96I
notes: Fab
B16: GHR13 Fab (Fab, V domains shown)
VH: EVQLVESGGGLVQPGGSLRLSCAASGFNVYYSSIHWVRQAPGKGLEWVAYIYPSSGSTSYADSVKGRFTISADTSKNTAYLQMNSLRAEDTAVYYCARSWQWYYPGWEQYGWYGMDYWGQGTLVTVSS
VL: B1 VL with Y91S, Y92G, T93G, L96V
notes: Fab
B17: GHR14 Fab (Fab, V domains shown)
VH: EVQLVESGGGLVQPGGSLRLSCAASGFNISSSYIHWVRQAPGKGLEWVASISSYYGYTSYADSVKGRFTISADTSKNTAYLQMNSLRAEDTAVYYCARSYGSYYGYYHYWEWYGLDYWGQGTLVTVSS
VL: B5 VL with Y91W, E92Q, E93Y, Y94W, P95S, L96P, I97V
notes: Fab
B18: GHR15 Fab (Fab, V domains shown)
VH: EVQLVESGGGLVQPGGSLRLSCAASGFNVSSSSIHWVRQAPGKGLEWVASIYSYYGYTSYADSVKGRFTISADTSKNTAYLQMNSLRAEDTAVYYCARSSGYHGWYWNGMDYWGQGTLVTVSS
VL: B5 VL with Y91W, E92Y, E93G, Y94M, P95S, I97V
notes: Fab

Tests used:
[1] = molecular target: T1, Growth Hormone Receptor (GHR) …; assay: competition ELISA: Fab titrated on plate-bound GHR preincubated with 200 nM GH (the legend of 6A names B2036), anti-human Fab-HRP
Description: 200 nM of GHR was immobilized on a 96-well high binding plate (Geiner Bio) and blocked with 5% BSA overnight. […] The Fab binding to GHR was detected using HRP-conjugated anti-human (Fab)2 antibody (Jackson ImmunoResearch, 1:5000 dilution in PBST), and the signal was developed with TMB substrate.

[2] = molecular target: T2, Human GHR-Fc-10x His (extracellular …); assay: SPR, GHR-Fc-10xHis captured on Ni-NTA chip, Fab as analyte, 1:1 fit
Description: Surface plasmon resonance (SPR) measurements were conducted in a MASS-1 (Bruker) instrument. The target GHR-Fc (50 nM) with a 10× His-tag was captured in a Ni-NTA sensor chip. […] Flow rate was 30 ul/min and temperature 20° C. Sensograms were corrected through double referencing and fitting was done with a 1:1 binding model using the Sierra Analyzer (Bruker). For epitope binning experiments, the first FAB was injected at saturating concentrations (200 nM), followed by injection a second FAB in equal molar mixture with the first FAB, and the response unit (RU) was recorded.
Target GHR_Fc (from different species) were immobilized via a 10× His-tag to a Ni-NTA sensor chip. […] Sensograms were corrected through double referencing and 1:1 binding model fit was done using Sierra Analyzer (Bruker). To reveal different epitopes on GHR, the epitope binning experiment was performed.

Binder	EC50 [1] [nM]	Kd [2] [nM]	koff [2] [s⁻¹]	kon [2] [M⁻¹ s⁻¹]
B1	26	–	–	–
B2	3.5	–	–	–
B3	3.5	–	–	–
B4	–	6.29	0.000336	53400
B5	–	16.8	0.000873	51200
B6	–	< 1	1.32e-06	405000
B7	–	1.9	0.000992	522000
B8	–	15.5	0.00211	136000
B9	–	1.89	0.000296	156000
B10	–	2.21	0.00129	587000
B11	–	3.23	0.000505	156000
B12	–	< 1	0.00012	238000
B13	–	1.51	0.000642	425000
B14	–	1.3	0.000587	451000
B15	–	< 1	0.000168	536000
B16	–	2.84	0.00053	187000
B17	–	7.15	0.00127	177000
B18	–	< 1	0.000131	170000
